Data taken from patent US20130337438A1 (JAPAN HEALTH SCIENCES FOUNDATION, published 2013).

T1: HPV51 L1/L2-capsid (human papillomavirus type 51, UniProt P26539 1-468; P26536 1-504)
T1 construct: Capsid of co-expressed L1 and L2 from 293FT cells; The pseudovirus is the same capsid with a reporter plasmid; also called L1/L2-capsid of type 51; HPV51 pseudovirus
T1 sequence 1: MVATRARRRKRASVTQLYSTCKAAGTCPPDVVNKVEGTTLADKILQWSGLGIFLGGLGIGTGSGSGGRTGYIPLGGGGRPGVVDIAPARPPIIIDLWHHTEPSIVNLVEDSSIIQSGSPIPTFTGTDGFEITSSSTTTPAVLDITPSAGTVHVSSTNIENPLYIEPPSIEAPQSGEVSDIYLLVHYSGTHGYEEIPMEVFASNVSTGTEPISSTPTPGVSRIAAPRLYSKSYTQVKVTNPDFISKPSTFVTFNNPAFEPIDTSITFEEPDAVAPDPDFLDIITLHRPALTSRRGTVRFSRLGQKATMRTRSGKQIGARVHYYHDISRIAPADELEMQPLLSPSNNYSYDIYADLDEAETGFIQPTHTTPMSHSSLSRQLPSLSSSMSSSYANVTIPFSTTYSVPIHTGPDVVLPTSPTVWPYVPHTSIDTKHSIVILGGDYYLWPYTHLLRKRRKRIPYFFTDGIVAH
T1 sequence 2: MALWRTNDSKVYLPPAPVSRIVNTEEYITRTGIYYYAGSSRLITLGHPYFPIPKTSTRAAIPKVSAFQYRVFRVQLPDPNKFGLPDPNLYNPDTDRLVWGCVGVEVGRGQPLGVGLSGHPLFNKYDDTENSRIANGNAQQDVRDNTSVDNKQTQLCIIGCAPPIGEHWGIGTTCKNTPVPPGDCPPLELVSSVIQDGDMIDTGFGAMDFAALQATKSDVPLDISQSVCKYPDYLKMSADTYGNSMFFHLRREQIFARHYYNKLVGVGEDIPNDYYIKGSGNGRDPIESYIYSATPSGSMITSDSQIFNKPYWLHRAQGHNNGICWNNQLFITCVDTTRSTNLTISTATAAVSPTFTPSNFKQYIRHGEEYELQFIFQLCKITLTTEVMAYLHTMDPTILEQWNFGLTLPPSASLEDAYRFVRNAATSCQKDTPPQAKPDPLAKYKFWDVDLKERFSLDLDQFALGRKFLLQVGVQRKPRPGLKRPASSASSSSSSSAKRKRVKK

T2: HPV35 L1/L2-capsid (human papillomavirus type 35, UniProt P27234 1-469; P27232 1-502)
T2 construct: Capsid of co-expressed L1 and L2 from 293FT cells; The pseudovirus is the same capsid with a reporter plasmid; also called L1/L2-capsid of type 35; HPV35 pseudovirus
T2 sequence 1: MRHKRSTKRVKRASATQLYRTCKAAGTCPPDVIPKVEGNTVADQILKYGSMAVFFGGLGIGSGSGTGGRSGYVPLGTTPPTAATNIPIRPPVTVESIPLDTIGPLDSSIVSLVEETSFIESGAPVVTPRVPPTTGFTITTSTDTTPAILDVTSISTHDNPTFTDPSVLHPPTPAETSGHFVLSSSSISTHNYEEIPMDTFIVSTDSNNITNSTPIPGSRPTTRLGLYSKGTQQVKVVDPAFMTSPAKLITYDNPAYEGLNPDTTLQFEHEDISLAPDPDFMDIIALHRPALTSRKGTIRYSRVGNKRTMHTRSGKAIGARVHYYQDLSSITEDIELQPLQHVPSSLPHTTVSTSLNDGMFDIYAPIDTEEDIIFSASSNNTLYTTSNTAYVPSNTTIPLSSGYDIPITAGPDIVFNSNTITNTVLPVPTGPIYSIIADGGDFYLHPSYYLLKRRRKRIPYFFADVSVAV
T2 sequence 2: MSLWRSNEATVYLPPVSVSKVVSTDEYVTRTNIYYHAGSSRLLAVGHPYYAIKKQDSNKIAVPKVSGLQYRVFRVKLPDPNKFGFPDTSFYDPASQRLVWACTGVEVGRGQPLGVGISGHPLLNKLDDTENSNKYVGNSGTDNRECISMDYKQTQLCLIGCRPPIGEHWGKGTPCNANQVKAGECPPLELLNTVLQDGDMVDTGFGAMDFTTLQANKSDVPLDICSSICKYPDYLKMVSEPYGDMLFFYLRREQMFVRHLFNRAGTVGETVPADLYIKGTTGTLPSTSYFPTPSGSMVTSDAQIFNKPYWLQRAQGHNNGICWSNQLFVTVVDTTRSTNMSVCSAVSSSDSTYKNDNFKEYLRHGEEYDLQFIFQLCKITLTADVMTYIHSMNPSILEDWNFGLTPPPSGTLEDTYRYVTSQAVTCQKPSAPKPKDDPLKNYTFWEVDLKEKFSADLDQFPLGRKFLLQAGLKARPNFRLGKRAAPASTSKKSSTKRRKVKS

B1: monoclonal antibody 13B (antibody, V domains shown)
VH: DVQLQESGPGLVKPSQSLSLSCTVTGYSITSDSAWNWIRQFPGNKLEWMGYITFSGSTNYNPSLKSRLSITRDTSKNQFFLQLNSVTTEDTATYYCTGPFLDYWGQGTTLTVSS
VL: DVVMTQTPLSLPVSLGDQATISCRSSLSLVLSNRITYLQWYLQKPGQSPKLLIYKVSNRFSGVPDRFSGSGSGTDFTLKISRVEAEDLGVYFCSQSSHFPWTFGGGTKLEIKR
notes: Used as mouse ascites or as antibody purified from ascites; also called Mouse-Mouse hybridoma 13B (FERM BP-11304)
B2: monoclonal antibody 24B (antibody, V domains shown)
VH: EVQLQQSGTVLARPGASVKMSCKASVYSFPSNWMHWVKQRPGQGLEWIGAIYPGTGATRYNQKFKDKAKLTAVTSADTAYMELSSLTDEDSAVYYCTGYSLYWGQGTILTVSS
VL: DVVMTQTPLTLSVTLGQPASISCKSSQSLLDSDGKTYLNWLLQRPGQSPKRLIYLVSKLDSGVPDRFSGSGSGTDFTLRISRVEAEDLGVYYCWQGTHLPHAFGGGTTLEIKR
notes: Used as mouse ascites or as antibody purified from ascites; also called Mouse-Mouse hybridoma 24B (FERM BP-11305)

What was measured:
[1] = biological target: T1, HPV51 L1/L2-capsid; assay: ELISA on immobilized L1/L2-capsid, purified antibody 250 ng/well
[2] = biological target: T1, HPV51 L1/L2-capsid; assay: ELISA on immobilized L1/L2-capsid, ascites 1:100
[3] = biological target: T2, HPV35 L1/L2-capsid; assay: ELISA on immobilized L1/L2-capsid, ascites 1:100

Binder	binding result [1]	binding result [2]	binding result [3]
B1	binds		
B2		binds	binds
